# Measured values taken from the DeepSol protein solubility set.
# Experiment: soluble on expression in E. coli; label from the status in PepcDB or PDB records
row,Sequence,soluble on expression in E. coli
1,MKKDLISVVMSAYNSEKFISDSISSILDQTYENWELIIINDASSDNTLKIVNQFSEKDPRIKVIDNENNLGLTISLNIGINNSKGEFIARLDSDDFAEPSRLEKELDHLHAYPEAGLVGSGAHLINSSGNKIGSMNVMSQPYFVNRFLINLNPFIHSSIMVRKKALDNVGSYREKFRYSQDYDLILRLSDKYKLSNIALPLIRWRVSDSSVTMQHHTLQRIYADIAREFAIERRNSGHDSYESTEFDTLIHEMRIRNQGRYLCDHGVYDLLFNKKYKEGCSELIKGISKGGFPYNSFYRGITQVISKVNIQLEHHHHHH,not soluble
2,MKKDLSALKEARFNAILDSATILLVENPTASMNEIAEYAGIGIATLHRYVESREKLMLFLGHRAIQLVSDTVNQIPLDEERSENYIPELIEALIPLGDKIYFLGHDASVFNNKELGEAEEKLREPLRRVIELLQQRGYFQQTVSSEWILNTLYALLFHTWEQVHEGNVAKKSAAELVLNTFYYGFKAKDELRGK,not soluble
3,MKKEIKFSLVYRDMWQSSGKYQPRADQLVRIAPLIIEMGCFSRVETNGGAFEQVNLLYGENPNKAVRAFTKPFHEASIQTHMLDRGLNGLRMYPVPADVRRLMYKVKHAQGVDITRIFCGLNEVRNIIPSIHYALEAGMIPQATLCITFSPVHTVEYYTAIAERLIEAGAPEICLKDMAGVGRPEMLGRLTKAIKERHPEIIIQYHGHSGPGLSMASILEVCENGADIIDVAMEPISWGKVHPDVISVQAMLKDAGFQVPEINMKAYMKARAMTQEFIDDFLGYFMDPTNKHMSSLLLKCGLPGGMMGSMMADLKGVHSGINLILRGKNEPELSIDDLLVMLFDEVEYVWPKLGYPPLVTPFSQYVKNVALMNVMSLIKGEERWTMIDNHTWDMILGKSGRLPGALAPEIIALAKEKGYEFTDEDPQKNYPDQLDEYRKEMTENGWDFGQDDEELFELAMHDRQYRDYKSGIAKKRFEDDLQRAKDAALAKQGFSEEEVKRMKRAKAEPVTAMEKGQIIWEIDVESPSMPPEVGHKYDPDDVFCYIATPWHTYDKVLANFSGRVIEVCAKQGALVDKGEPLAYIERCEEPA,not soluble
4,MKKEPKGAKNRIVIAKDEKNVLTCTSEGFEYTPDIVKNVYGKSSRPALEDWFLTELDFFRRYYPGYEVFTLGSSCVFGEKFVNYLTICEFDIDSTYAFDCLKKALRESDQAIRRKLSAMWKWDIAARKDWSIVFMVGHMDFAYFLQHRKEFQEDAHKRFMSTFTTAETKITSRDYKVMHDGAILPFDETALSPEDRFIFENYQKIKFETTPL,soluble
5,MKKERKPKIVIMGGGTGLSVLLRGLKQYPVDITAVVTIADDGGSSGRLRDELEIPPPGDIRNVLVALSDVEPLVEALFQHRFTTGDGLKGHALGNLLLAGMTSITGDFFHAITETSKVLNVRGRVLPAANQSAVLHAELEDGEIVTGESKIPYYGKKINRVFLTPEDVEPLHETLAEIKRADLLVFGPGSLYTSILPNLVVNKIGDAVLAAKAKKVYVCNVMTQAGETMGYTAFDHVQALHDHLGQPFINTAIVNNREIPCELRKSYEEEMSTPVVVDEERFVENNIDVIQEGLAKYDDHVVRHDTLKLASILYSLLMAGDPLEHHHHHH,soluble
6,MKKGILIILLVLMVLSCGTSKKVTLPDKDIKIENETVFFKNEKYTGKINLKDKNSVSGFITFKDGHLDGPTELKNDKKQMYTKFNIVNNQFEGETVVKNADQGINMTVNYNNGKIVKLLGDYSKTVKYDITFVDGLANGWFESEGEKFVFSDGVLTLEEDGITTEVKYYVNQETGDMGMEFFINGKSAGRDEKPNKVFGMEYFRIIAISSILEENSKGKDK,not soluble
7,MKKGTPLPHSDELDAGNVLAVENLNIAFMQDQQKIAAVRNLSFSLQRGETLAIVGESGSGKSVTALALMRLLEQAGGLVQCDKMLLQRRSREVIELSEQNAAQMRHVRGADMAMIFQEPMTSLNPVFTVGEQIAESIRLHQNASREEAMVEAKRMLDQVRIPEAQTILSRYPHQLSGGMRQRVMIAMALSCRPAVLIADEPTTALDVTIQAQILQLIKVLQKEMSMGVIFITHDMGVVAEIADRVLVMYQGEAVETGTVEQIFHAPQHPYTRALLAAVPQLGAMKGLDYPRRFPLISLEHPAKQAPPIEQKTVVDGEPVLRVRNLVTRFPLRSGLLNRVTREVHAVEKVSFDLWPGETLSLVGESGSGKSTTGRALLRLVESQGGEIIFNGQRIDTLSPGKLQALRRDIQFIFQDPYASLDPRQTIGDSIIEPLRVHGLLPGKDAAARVAWLLERVGLLPEHAWRYPHEFSGGQRQRICIARALALNPKVIIADEAVSALDVSIRGQIINLLLDLQRDFGIAYLFISHDMAVVERISHRVAVMYLGQIVEIGPRRAVFENPQHPYTRKLLAAVPVAEPSRQRPQRVLLSDDLPSNIHLRGEEVAAVSLQCVGPGHYVAQPQSEYAFMRR,not soluble
8,MKKHGVLNSEIAAVLASLGHTDTVVIADCGLPIPDGVKRIDLAVEIGKPSFLEVLQVVADDMAIEKVTLAEEVIINNAEVNKEIERKLIEPAFEYVSHEQFKEHTKKAKAIIRTGEATPYANVILHAGVIF,not soluble
9,MKKIAIFAGDGIGPEIVAAARQVLDAVDQAAHLGLRCTEGLVGGAALDASDDPLPAASLQLAMAADAVILGAVGGPRWDAYPPAKRPEQGLLRLRKGLDLYANLRPAQIFPQLLDASPLRPELVRDVDILVVRELTGDIYFGQPRGLEVIDGKRRGFNTMVYDEDEIRRIAHVAFRAAQGRRKQLCSVDKANVLETTRLWREVVTEVARDYPDVRLSHMYVDNAAMQLIRAPAQFDVLLTGNMFGDILSDEASQLTGSIGMLPSASLGEGRAMYEPIHGSAPDIAGQDKANPLATILSVAMMLRHSLNAEPWAQRVEAAVQRVLDQGLRTADIAAPGTPVIGTKAMGAAVVNALNLKD,soluble
10,MKKIIETQRAPGAIGPYVQGVDLGSMVFTSGQIPVCPQTGEIPADVQDQARLSLENVKAIVVAAGLSVGDIIKMTVFITDLNDFATINEVYKQFFDEHQATYPTRSCVQVARLPKDVKLEIEAIAVRSA,soluble
11,MKKILLVFLVGTMAFAAYGAEGDVQVSKSVEDSITKDYDQDGVYSSYEKALRRAQESVYVTLPEKRGYWYTMLDRIKAEEEELMPDEQARMRRKR,not soluble
12,MKKITLLSGILFLIGYSDAEVFESQNVRVKRNDFTNNYGYGPFGIGPTNGGFDSYGFYRDKFYNSGLPPLYSFASYRNYYHEISFHKNKYGQPAPTDFETLQQERYGPYYDGVWGYADHSKNWFGKR,not soluble
13,MKKKSVWIKADEGGWEEQKERITTGLESGADCVLVNPGDVEKVRELGNITVAAFARDNKSGADIVVVGKRGEGDGTKPLPQEIPGSFDVNAATLLTDKGVTVGGYVVIKDRSYERFAAEMGKICDYLLVTGTDWKVIPLENLIADLQREKVKIIFGVKSAEEARLAFQTLETGADGVLLDSGNPQEIKDTIKAARELESESTELESAVVTRVEPLGMGDRVCVDTCNLMQRGEGMLIGSQASGMFLVNSESDDSPYVAARPFRVNAGAVHSYIKIGDKTRYLSELQAGDSVTIIDSRGKQREGIVGRIKIESRPLMLIEAKAGDRTLTAILQNAETIKLVGKGGTPISVAKLKKGDEVLVRLEEGARHFGKKIEETIIEKLEHHHHHH,soluble
14,MKKLINKKETFLTDMLEGLLIAHPELDLIANTVIVKKAKKEHGVAIVSGGGSGHEPAHAGFVAEGMLDAAVCGEVFTSPTPDKILEAIKAVDTGDGVLLVVKNYAGDVMNFEMAQELAEMEGINVQTVIVRDDIAVTNEVQRRGVAGTVFVHKLAGYLAEKGYSLTEIKSRVEALLPEIKSIGMAIEPPLVPTTGKYGFDIEDDKMEIGIGIHGEKGIHREEVKDIDHIVGTLLDELYKEVTANDVILMVNGMGGTPLSELNIVTKYIQQNLAARTVNVAKWFVGDYMTSLDMQGFSITIVPNKPEYLEAFLAPTTSQYFKLEHHHHHH,soluble
15,MKKLLFAIDDTEACERAAQYILDMFGKDADCTLTLIHVKPEFMLYGEAVLAAYDEIEMKEEEKAKLLTQKFSTFFTEKGINPFVVIKEGEPVEMVLEEAKDYNLLIIGSSENSFLNKIFASHQDDFIQKAPIPVLIVK,soluble
